According to patent US11839630B2, “CAR-T cells targeting IL-1RAP and their use” (ETABLISSEMENT FRANCAIS DU SANG, priority 2017, dated 2023):
Several values for one entry are separate records, joined by “and”; a condition that tells them apart may be missing. Equal values may be shown once.

Tests used:
IL-1RAP [1] = target: T1, IL-1RAP (Homo sapiens, UniProt Q9NPH3); assay: Confocal microscopy on KU812 and Raji cell lines; type: binding; settings: KU812 cells
T1 sequence (Q9NPH3 21-570): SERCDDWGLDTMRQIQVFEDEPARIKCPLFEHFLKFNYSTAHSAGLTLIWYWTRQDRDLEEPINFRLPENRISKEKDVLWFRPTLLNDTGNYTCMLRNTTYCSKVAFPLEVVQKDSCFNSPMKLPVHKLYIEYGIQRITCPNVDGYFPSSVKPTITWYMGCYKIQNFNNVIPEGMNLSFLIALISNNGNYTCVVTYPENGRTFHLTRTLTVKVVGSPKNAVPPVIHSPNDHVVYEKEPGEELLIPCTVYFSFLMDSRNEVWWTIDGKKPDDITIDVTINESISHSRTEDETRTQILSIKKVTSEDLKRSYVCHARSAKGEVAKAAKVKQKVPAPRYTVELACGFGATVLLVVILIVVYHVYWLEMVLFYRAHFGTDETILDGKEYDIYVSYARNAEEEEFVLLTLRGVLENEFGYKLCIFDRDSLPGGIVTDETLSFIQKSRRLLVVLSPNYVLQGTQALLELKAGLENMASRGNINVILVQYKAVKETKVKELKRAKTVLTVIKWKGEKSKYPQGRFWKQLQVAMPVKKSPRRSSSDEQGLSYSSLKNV
Protocol: FIG. 4: KU812 (a) and Raji cells lines (b) stained with Fluorescence mAbs [(left panel: anti murine Fc-IgG; medium panel: IL-1RAP (#E3C3)]. Counterstaining was performed by nuclear stain DAPI and superposed to Fluorescent staining (right panel, merge).
Confocal microscopy was assessed on KU812 and Raji cells lines concentrated on slides (Superfrost™ Plus, 4951PLUS4, ThermoFisher Scientific) by Cytospin. Briefly, the cells were stained with Fluorescent monoclonal antibodies: anti murine Fc-IgG; IL-1RAP (#E3C3) and were analyzed with an Olympus BX51 microscope equipped with a QImaging Retiga 2000R camera. Digital images were acquired using the 40× objective and digitalized with Image-Pro Plus (version 6.0, Media Cybernetics). Counterstaining was performed by nuclear stain DAPI (2-(4-Amidinophenyl)-6-indolecarbamidine dihydrochloride, Sigma-Aldrich-France) and superposed to fluorescent staining.

IL-1RAP [2] = target: T1, IL-1RAP; assay: Immunostaining of FDA standard frozen normal tissue array; type: binding; parameters: FDA standard frozen tissue arrays, including 90 tissue cores (30 organs) of 3 individual donors per organ; tissue US Biomax; host or cells: FDA standard frozen normal human tissue array (30 organs, 3 donors each); key to Staining intensity (0 to 3+): negative (0); weak staining (1+); moderate staining (2+); strong staining (3+); settings: for normal tissues in which staining was detected: 30 normal human tissues, 3 donors per organ
Text: (§1) FIG. 22: (A) Tissue microarray. Representative #A3C3 staining of an US Food and Drug Administration standard frozen tissue array, including 90 tissue cores (30 organs) of 3 individual donors per organ (US Biomax, Rockville, MD, USA). Immunostaining was detected using the UltraView Universal DAB Detection Kit (Ventana, USA). Images were acquired and analyzed with NDP.view 2.0 software. […] (Scale bars, 100 μm.) High IL-1RAP (KU812)— or negative (Raji)-expressing cell lines were respectively used as positive or negative controls. (B) IL-1RAP R&D (red) or #A3C3 (blue) staining of HMEC-1 dermal endothelial cell line. Isotype IgG1 (gray) is depicted as overlay. RFI is provided for both staining.
In order to study specific or non-target tissue binding, FDA standard frozen tissue arrays, including 90 tissue cores (30 organs) of 3 individual donors per organ (US Biomax, Rockville, United States) were incubated as previously described. Immunostaining was detected using UltraView Universal DAB Detection Kit (Ventana, USA). Images were acquired and analyzed with NDP.view 2 software. High IL-1RAP (KU812) or negative (Raji) expressing cell lines were respectively used as positive or negative controls. The staining intensity was graduated as follows: negative (0), weak staining (1+), moderate staining (2+), or strong staining (3+). […]

[3] = system: HMEC-1 endothelial cell line; assay: Staining of HMEC-1 dermal endothelial cell line; type: binding, human; settings: flow cytometry staining
Text: as §1

staining pattern by confocal microscopy (IL-1RAP [1]): cell membrane staining | Staining intensity (0 to 3+) (IL-1RAP [2]; Adrenal gland, replicates): 0 | Staining intensity (0 to 3+) (IL-1RAP [2]; Cerebellum tissue, replicates): 0 | Comments: epithelial cells stained (IL-1RAP [2]; Colon): Epithelial cells (~30%); | Comments: inflammatory elements stained (IL-1RAP [2]; Colon): inflammatory elements (100%) | Staining intensity (0 to 3+) (IL-1RAP [2]; Colon, replicates): 3+ | Staining intensity (0 to 3+) (IL-1RAP [2]; Esophagus, replicates): 0 | Staining intensity (0 to 3+) (IL-1RAP [2]; Heart, replicates): 0 | Staining intensity (0 to 3+) (IL-1RAP [2]; Kidney, replicates): 0 | Staining intensity (0 to 3+) (IL-1RAP [2]; Liver, replicates): 0 | Comments: stained elements (IL-1RAP [2]; Lung): Few inflammatory elements | Staining intensity (0 to 3+) (IL-1RAP [2]; Lung, replicates): 2+ | Comments: endothelial cells stained (IL-1RAP [2]; Lymph node): ~30% of endothelial cells | Staining intensity (0 to 3+) (IL-1RAP [2]; Lymph node, replicates, listed as mAb#A3C3): 2+ and 1+ | Staining intensity (0 to 3+) (IL-1RAP [2]; Ovary, replicates): 0 | Staining intensity (0 to 3+) (IL-1RAP [2]; Pancreas, replicates): 1+ | Staining intensity (0 to 3+) (IL-1RAP [2]; Peripheral nerve, replicates): 0 | Staining intensity (0 to 3+) (IL-1RAP [2]; Pituitary gland, replicates): 0 | Comments: cytotrophoblast cells stained (IL-1RAP [2]; Placenta): Cytotrophoblast cells (~10%) | Staining intensity (0 to 3+) (IL-1RAP [2]; Placenta, replicates): 0 | Comments: endothelial cells stained (IL-1RAP [2]; Prostate): ~10% of endothelial cells | Staining intensity (0 to 3+) (IL-1RAP [2]; Prostate, replicates, listed as mAb#A3C3): 1+ (2×) and 0 (4×) | Staining intensity (0 to 3+) (IL-1RAP [2]; Salivary gland, replicates): 0 | Comments: endothelial cells stained (IL-1RAP [2]; Skeletal muscle): ~10% of endothelial cells | Staining intensity (0 to 3+) (IL-1RAP [2]; Skeletal muscle, replicates (first listing), listed as mAb#A3C3): 1+ and 0 (2×) | Staining intensity (0 to 3+) (IL-1RAP [2]; Skeletal muscle, replicates (second listing)): 0 | Staining intensity (0 to 3+) (IL-1RAP [2]; Skin, replicates): 0 | Comments: epithelial cells stained (IL-1RAP [2]; Small intestine): Epithelial cells (~30%); | Comments: inflammatory elements stained (IL-1RAP [2]; Small intestine): inflammatory elements (100%) | Staining intensity (0 to 3+) (IL-1RAP [2]; Small intestine, replicates, listed as mAb#A3C3): 2+ and 0 and 1+ | Staining intensity (0 to 3+) (IL-1RAP [2]; Smooth muscle, replicates): 0 | Staining intensity (0 to 3+) (IL-1RAP [2]; Spinal cord, replicates): 0 | Staining intensity (0 to 3+) (IL-1RAP [2]; Spleen, replicates): 3+ | Comments: epithelial cells stained (IL-1RAP [2]; Stomach): few epithelial cells <10% | Comments: gastric mucosa cells stained (IL-1RAP [2]; Stomach): Few gastric mucosa cells (~10%); | Staining intensity (0 to 3+) (IL-1RAP [2]; Stomach, replicates, listed as mAb#A3C3): 1+ and 0 (2×) | Staining intensity (0 to 3+) (IL-1RAP [2]; Testis, replicates): 0 | Staining intensity (0 to 3+) (IL-1RAP [2]; Thyroid gland, replicates): 0 | Staining intensity (0 to 3+) (IL-1RAP [2]; Ureter, replicates): 0 | Staining intensity (0 to 3+) (IL-1RAP [2]; Uterine cervix, replicates): 0
B1: #E3C3: mouse anti-hIL-1RAP monoclonal antibody subclone generated by standard hybridoma technique; VH SEQ ID NO: 2, VL SEQ ID NO: 4 (antibody, V domains shown)
VH: MGWSCIILFLVATATGVNSQVQLQQPGAELMMPGASVKVSCEASGYTFTDSWMHWVKQRPGQGLEWIGAIDPSDSYTTYNQKFTGKATLSVDESSNTAYMQLSSLTSEDSAVYYCARYYSGSNYISPFPYWGQGTLVTVSA
VL: MESQIQVFVFVFLWLSGVDGDIVMTQSHKFMSTSVGDRVTITCKASLDVSTAVAWYQQKPGQSPKLLIYSASYRYTGVPDRFTGSGSGTDFTFTISSVQAEDLAVYYCQQHYSPPFTFGSGTNLEIK
modifications: Amino acid sequence of chain H (VH) of murine scFv anti-IL-1RAP; Amino acid sequence of chain K (VL) of murine scFv anti-IL-1RAP
normal tissues in which staining was detected (IL-1RAP [2]): only 6 tissues as Lymph node, colon, small intestine, placenta, stomach and prostate | normal tissues in which staining was detected (IL-1RAP [2]; listed as #A3C3): only six tissues: lymph node, prostate, skeletal muscle, stomach, colon and small intestine, and pancreas | Comments: stained elements (IL-1RAP [2]; Spleen): Necrotic elements | recognition of HMEC-1 cell surface [3]: not recognized
